From patent US20260139007A1 (SANFORD BURNHAM PREBYS MEDICAL DISCOVERY INSTITUTE, published 2026)
Numbered stars: 1 amine (or outer) side, 2 acyl side, 3 side chain; on linkers, the order of the positions; unused ones are H or OH. Bridge positions count the residues as written; N and C are the ends. Square brackets hold non-standard residues; d marks the D form. Side chains are listed from the residue outwards. Ends that are not written are not given here. * marks the point of attachment. γGlu = O=C(O)[C@H](CCC(=O)[*:2])N[*:1]; βAsp = O=C(O)[C@H](CC(=O)[*:2])N[*:1]; Palmitoyl = CCCCCCCCCCCCCCCC(=O)*; Lauroyl = CCCCCCCCCCCC(=O)*; Octanoyl = CCCCCCCC(=O)*; Dodecyl = CCCCCCCCCCCC*; βAla = NCCC(=O)O

Assays:
[1] = biological target: T1, EphA4 Fc (human EphA4 Fc, #CJ75, Novoprotein, or mouse EphA4 Fc, #641-A4, R&D Systems/BioTechne) (human or mouse, UniProt P54764 20-547); test: competition ELISA, inhibition of ephrin-A5 AP binding to immobilized EphA4 Fc
T1 construct: extracellular domain; bought reagents; also called EphA4 extracellular domain fused to the Fc portion of an antibody; not shown: Fc portion of an antibody

[2] = biological target: T1, EphA4 Fc (human EphA4 Fc, #CJ75, …); test: competition ELISA, inhibition of ephrin-A5 AP binding to immobilized EphA4 Fc, with 40 mg/mL delipidated HSA
[3] = biological target: T1, EphA4 Fc (human EphA4 Fc, #CJ75, …); test: competition ELISA, ephrin-A5 AP on immobilized EphA4 Fc
[4] = biological target: FLAG-tagged EphA4 stably expressed in immortalized cells (HEK-EphA4 cells); test: cell-based or functional assay
[5] = biological target: T1, EphA4 Fc (human EphA4 Fc, #CJ75, …); test: competition ELISA, ephrin-A5 AP on immobilized EphA4 Fc, same experiments

T1 sequence (P54764 20-547): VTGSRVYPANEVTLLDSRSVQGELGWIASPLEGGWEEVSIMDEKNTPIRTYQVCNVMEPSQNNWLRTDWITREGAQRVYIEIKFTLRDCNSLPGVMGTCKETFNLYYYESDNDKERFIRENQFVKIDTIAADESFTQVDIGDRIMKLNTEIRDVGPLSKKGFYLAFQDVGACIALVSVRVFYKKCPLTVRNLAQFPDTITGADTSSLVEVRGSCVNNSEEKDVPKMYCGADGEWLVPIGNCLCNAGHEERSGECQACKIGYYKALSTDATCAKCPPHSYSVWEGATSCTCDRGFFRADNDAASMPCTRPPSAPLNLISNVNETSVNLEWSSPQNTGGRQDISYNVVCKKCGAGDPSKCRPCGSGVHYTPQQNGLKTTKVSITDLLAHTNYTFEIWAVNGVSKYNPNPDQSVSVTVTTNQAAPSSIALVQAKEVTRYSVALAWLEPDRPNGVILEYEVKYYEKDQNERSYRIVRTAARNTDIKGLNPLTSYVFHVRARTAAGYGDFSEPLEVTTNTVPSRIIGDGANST

Binder	IC50 [1]	IC50 [2]	further results
[βAla]PYCVYK([Gly-octanyl])[βAla]SWSC-NH2 (disulfide 4-12, also called peptide 6; βAPYCVYK(octanyl-G)βASWSC-NH2) [compound 6]	42 nM	130 nM	–
XPYCVYRXSWSCXK (β-alanine at 1 and 8; disulfide bond Cys4-Cys12 (cyclic); 30 kDa methoxy-PEG joined at the C-terminus through an oxime linkage (APY-d3-βAla-glyoxyl with methoxy-PEG-CONH(CH2)2-ONH2), also called βAPYCVYRβASWSC-linker3-PEG) [APY-d3-PEG3]	15 nM	–	–
[βAla]PYCVYK(Lauroyl)[βAla]SWSC-NH2 (disulfide 4-12; N-terminus assumed; SMILES CCCCCCCCCCCC(=O)NCCCC[C@@H]1NC(=O)[C@H](Cc2ccc(O)cc2)NC(=O)[C@H](C(C)C)NC(=O)[C@@H](NC(=O)[C@H](Cc2ccc(O)cc2)NC(=O)[C@@H]2CCCN2C(=O)CCN)CSSC[C@@H](C(N)=O)NC(=O)[C@H](CO)NC(=O)[C@H](Cc2c[nH]c3ccccc23)NC(=O)[C@H](CO)NC(=O)CCNC1=O, also called peptide 8; βAPYCVYK(lauroyl)βASWSC-NH2) [compound 8]	390 nM	–	fold decrease in potency against APY-d3 similarly modified with a C8 lipid [3]: > 10 fold
[βAla]PYCVYK([γGlu-Palmitoyl])[βAla]SWSC-NH2 (disulfide 4-12; N-terminus assumed; SMILES CCCCCCCCCCCCCCCC(=O)N[C@@H](CCC(=O)NCCCC[C@@H]1NC(=O)[C@H](Cc2ccc(O)cc2)NC(=O)[C@H](C(C)C)NC(=O)[C@@H](NC(=O)[C@H](Cc2ccc(O)cc2)NC(=O)[C@@H]2CCCN2C(=O)CCN)CSSC[C@@H](C(N)=O)NC(=O)[C@H](CO)NC(=O)[C@H](Cc2c[nH]c3ccccc23)NC(=O)[C@H](CO)NC(=O)CCNC1=O)C(=O)O, also called peptide 17; βAPYCVYK(palmitoyl-γE)βASWSC-NH2) [compound 17]	2300 nM	–	–
[βAla]PYCVYR[βAla]SWSCGGGSK([γGlu-γGlu-Palmitoyl])G-NH2 (disulfide 4-12; N-terminus assumed; SMILES CCCCCCCCCCCCCCCC(=O)N[C@@H](CCC(=O)N[C@@H](CCC(=O)NCCCC[C@H](NC(=O)[C@H](CO)NC(=O)CNC(=O)CNC(=O)CNC(=O)[C@@H]1CSSC[C@H](NC(=O)[C@H](Cc2ccc(O)cc2)NC(=O)[C@@H]2CCCN2C(=O)CCN)C(=O)N[C@@H](C(C)C)C(=O)N[C@@H](Cc2ccc(O)cc2)C(=O)N[C@@H](CCCNC(=N)N)C(=O)NCCC(=O)N[C@@H](CO)C(=O)N[C@@H](Cc2c[nH]c3ccccc23)C(=O)N[C@@H](CO)C(=O)N1)C(=O)NCC(N)=O)C(=O)O)C(=O)O, also called peptide 20) [compound 20]	190 nM	–	–
XPYCVYRXSWSCGGKG (β-alanine at 1 and 8; palmitoyl-γGlu-γGlu on the side chain of the Lys of the C-terminal GGKG; C-terminal amide; disulfide bond Cys4-Cys12 (cyclic), also called peptide 19) [compound 19]	160 nM	–	–
[βAla]PYCVYK([Gly-Dodecyl])[βAla]SWSC-NH2 (disulfide 4-12, also called peptide 9; βAPYCVYK(lauryl-G)βASWSC-NH2) [compound 9]	590 nM	–	fold decrease in potency against APY-d3 similarly modified with a C8 lipid [3]: > 10 fold
XPYCVYRXSWSCXXK (β-alanine at 1 and 8; disulfide bond Cys4-Cys12 (cyclic); 30 kDa methoxy-PEG joined through linker2 at the C-terminus (amide formation with 30 kDa methoxy-PEG-(CH2)5COO-NHS on precursor 1, βAPYCVYRβASWSCβAβAK-NH2, SEQ ID NO: 36), also called βAPYCVYRβASWSC-linker2-PEG) [APY-d3-PEG2]	83 nM	–	–
[βAla]PYCVYK(Octanoyl)[βAla]SWSC-NH2 (disulfide 4-12; N-terminus assumed; SMILES CCCCCCCC(=O)NCCCC[C@@H]1NC(=O)[C@H](Cc2ccc(O)cc2)NC(=O)[C@H](C(C)C)NC(=O)[C@@H](NC(=O)[C@H](Cc2ccc(O)cc2)NC(=O)[C@@H]2CCCN2C(=O)CCN)CSSC[C@@H](C(N)=O)NC(=O)[C@H](CO)NC(=O)[C@H](Cc2c[nH]c3ccccc23)NC(=O)[C@H](CO)NC(=O)CCNC1=O, also called peptide 4; βAPYCVYK(octanoyl)βASWSC-NH2) [compound 4]	34 nM	100 nM	–
[βAla]PYCVYK([γGlu-Lauroyl])[βAla]SWSC-NH2 (disulfide 4-12; N-terminus assumed; SMILES CCCCCCCCCCCC(=O)N[C@@H](CCC(=O)NCCCC[C@@H]1NC(=O)[C@H](Cc2ccc(O)cc2)NC(=O)[C@H](C(C)C)NC(=O)[C@@H](NC(=O)[C@H](Cc2ccc(O)cc2)NC(=O)[C@@H]2CCCN2C(=O)CCN)CSSC[C@@H](C(N)=O)NC(=O)[C@H](CO)NC(=O)[C@H](Cc2c[nH]c3ccccc23)NC(=O)[C@H](CO)NC(=O)CCNC1=O)C(=O)O, also called peptide 11; βAPYCVYK(lauroyl-γE)βASWSC-NH2) [compound 11]	84 nM	–	–
XPYCVYRXSWSCGGKG (β-alanine at 1 and 8; myristoyl-γGlu-γGlu on the side chain of the Lys of the C-terminal GGKG; C-terminal amide; disulfide bond Cys4-Cys12 (cyclic), also called peptide 16) [compound 16]	77 nM	1370 nM	–
[βAla]PYCVYK([βAsp-Lauroyl])[βAla]SWSC-NH2 (disulfide 4-12; N-terminus assumed; SMILES CCCCCCCCCCCC(=O)N[C@@H](CC(=O)NCCCC[C@@H]1NC(=O)[C@H](Cc2ccc(O)cc2)NC(=O)[C@H](C(C)C)NC(=O)[C@@H](NC(=O)[C@H](Cc2ccc(O)cc2)NC(=O)[C@@H]2CCCN2C(=O)CCN)CSSC[C@@H](C(N)=O)NC(=O)[C@H](CO)NC(=O)[C@H](Cc2c[nH]c3ccccc23)NC(=O)[C@H](CO)NC(=O)CCNC1=O)C(=O)O, also called peptide 10; βAPYCVYK(lauroyl-βD)βASWSC-NH2) [compound 10]	110 nM	–	–
XPYCVYRXSWSCXXX (β-alanine at 1 and 8; disulfide bond Cys4-Cys12 (Cyc (4,12)); three 6-aminohexanoic acid (Ahx) residues and propargyl-glycine (Pra) after Cys12; 30 kDa methoxy-PEG on Pra through a triazole (click chemistry); free C-terminal acid (-OH)) [APY-d3-PEG4]	–	–	IC50 for inhibition of EphA4 tyrosine phosphorylation (pY596) induced by ephrin-A5 Fc in HEK-EphA4 cells, ELISA of cell lysates [4]: ~700 nM; fold loss of potency against APY-d3, EphA4 tyrosine phosphorylation in HEK-EphA4 cells [4]: ~2.5 fold
[βAla]PYCVYK[βAla]SWSC-NH2 (disulfide 4-12; N-terminus assumed; SMILES CC(C)[C@@H]1NC(=O)[C@@H](NC(=O)[C@H](Cc2ccc(O)cc2)NC(=O)[C@@H]2CCCN2C(=O)CCN)CSSC[C@@H](C(N)=O)NC(=O)[C@H](CO)NC(=O)[C@H](Cc2c[nH]c3ccccc23)NC(=O)[C@H](CO)NC(=O)CCNC(=O)[C@H](CCCCN)NC(=O)[C@H](Cc2ccc(O)cc2)NC1=O, also called peptide 3; βAPYCVYKβASWSC-NH2) [compound 3]	70 nM	–	fold decrease in potency (IC50) against APY-d3 [5]: ~2 fold
[βAla]PYCVYK(Octanoyl)[βAla]SWSCGGRG-NH2 (disulfide 4-12; N-terminus assumed; SMILES CCCCCCCC(=O)NCCCC[C@@H]1NC(=O)[C@H](Cc2ccc(O)cc2)NC(=O)[C@H](C(C)C)NC(=O)[C@@H](NC(=O)[C@H](Cc2ccc(O)cc2)NC(=O)[C@@H]2CCCN2C(=O)CCN)CSSC[C@@H](C(=O)NCC(=O)NCC(=O)N[C@@H](CCCNC(=N)N)C(=O)NCC(N)=O)NC(=O)[C@H](CO)NC(=O)[C@H](Cc2c[nH]c3ccccc23)NC(=O)[C@H](CO)NC(=O)CCNC1=O, also called peptide 5) [compound 5]	26 nM	75 nM	–
XPYCVYRXSWSCGGKG (β-alanine at 1 and 8; octanoyl on the side chain of the Lys of the C-terminal GGKG; C-terminal amide; disulfide bond Cys4-Cys12 (cyclic), also called peptide 7) [compound 7]	34 nM	110 nM	–
XPYCVYRXSWSCGGKG (β-alanine at 1 and 8; lauroyl on the side chain of the Lys of the C-terminal GGKG; C-terminal amide; disulfide bond Cys4-Cys12 (cyclic), also called peptide 12) [compound 12]	240 nM	920 nM	–
XPYCVYRXSWSCXXK (β-alanine at 1 and 8; disulfide bond Cys4-Cys12 (cyclic); 30 kDa methoxy-PEG joined through linker1 at the C-terminus (amide formation with 30 kDa methoxy-PEG succinimidyl carboxymethyl ester on precursor 1, βAPYCVYRβASWSCβAβAK-NH2, SEQ ID NO: 36), also called βAPYCVYRβASWSC-linker1-PEG) [APY-d3-PEG1]	180 nM	–	–
